Test results: publication PMC5148137 (Biochemical and biophysical research communications, 2012)

Target: Cul3(1–383)-(His)6 (co-expressed) (human, UniProt Q13618 1-383)
Assay: AUC

Chain of Cul3(1–383)-(His)6 (co-expressed) (Q13618 1-383): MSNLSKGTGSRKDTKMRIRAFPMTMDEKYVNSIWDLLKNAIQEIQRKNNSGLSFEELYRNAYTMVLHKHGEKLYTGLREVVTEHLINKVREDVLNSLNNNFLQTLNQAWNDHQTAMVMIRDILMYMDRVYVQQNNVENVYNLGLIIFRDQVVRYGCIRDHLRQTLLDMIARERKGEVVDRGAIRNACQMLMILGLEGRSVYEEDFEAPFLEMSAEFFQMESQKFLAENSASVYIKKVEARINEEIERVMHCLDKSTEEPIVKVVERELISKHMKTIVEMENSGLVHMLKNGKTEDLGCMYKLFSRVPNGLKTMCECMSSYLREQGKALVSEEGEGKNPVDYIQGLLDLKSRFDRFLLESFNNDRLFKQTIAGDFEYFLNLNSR

B1: MBP-KBTBD13(6–132) (domain or fragment, human, UniProt C9JR72 6-132, looked up)
chain: QTLVQVWVGGQLFQADRALLVEHCGFFRGLFRSGMRETRAAEVRLGVLSAGGFRATLQVLRGDRPALAAEDELLQAVECAAFLQAPALARFLEHNLTSDNCALLCDAAAAFGLRDVFHSAALFICDG
stoichiometry N: 1
